This passage reports Kd results from article PMC2928128 (Human Molecular Genetics, 2010).

B1: GST-CDH23 + exon68 (cytoplasmic region of cadherin-23 including the exon68-encoded sequence, residues 847-1114) (domain or fragment)
chain: NWYYRTVHKRKLKAIVAGSAGNRGFIDIMDMPNTNKYSFDGANPVWLDPFCRNLELAAQAEHEDDLPENLSEIADLWNSPTRTHGTFGREPAAVKPDDDRYLRAAIQEYDNIAKLGQIIREGPIKGSLLKVVLEDYLRLKKLFAQRMVQKASSCHSSISELIQTELDEEPGDHSPGQGSLRFRHKPPVELKGPDGIHVVHGSTGTLLATDLNSLPEEDQKGLGRSLETLTAAEATAFERNARTESAKSTPLHKLRDVIMETPLEITEL
B2: GST-CDH23 + exon68ΔITEL (residues 847-1110) (domain or fragment)
chain: NWYYRTVHKRKLKAIVAGSAGNRGFIDIMDMPNTNKYSFDGANPVWLDPFCRNLELAAQAEHEDDLPENLSEIADLWNSPTRTHGTFGREPAAVKPDDDRYLRAAIQEYDNIAKLGQIIREGPIKGSLLKVVLEDYLRLKKLFAQRMVQKASSCHSSISELIQTELDEEPGDHSPGQGSLRFRHKPPVELKGPDGIHVVHGSTGTLLATDLNSLPEEDQKGLGRSLETLTAAEATAFERNARTESAKSTPLHKLRDVIMETPLE
B3: GST-CDH23Δexon68 (cytoplasmic region of cadherin-23 lacking the exon68-encoded sequence, residues 847-1079) (domain or fragment)
chain: NWYYRTVHKRKLKAIVAGSAGNRGFIDIMDMPNTNKYSFDGANPVWLDPFCRNLELAAQAEHEDDLPENLSEIADLWNSPTRTHGTFGREPAAVKPDDDRYLRAAIQEYDNIAKLGQIIREGPIKLIQTELDEEPGDHSPGQGSLRFRHKPPVELKGPDGIHVVHGSTGTLLATDLNSLPEEDQKGLGRSLETLTAAEATAFERNARTESAKSTPLHKLRDVIMETPLEITEL

Assay in all cases: SPR
Assay [1] has as its target T1, harmonin-a Nter-PDZ1 fragment (residues 1-203) (UniProt Q9ES64 1-203).
T1 sequence (looked up): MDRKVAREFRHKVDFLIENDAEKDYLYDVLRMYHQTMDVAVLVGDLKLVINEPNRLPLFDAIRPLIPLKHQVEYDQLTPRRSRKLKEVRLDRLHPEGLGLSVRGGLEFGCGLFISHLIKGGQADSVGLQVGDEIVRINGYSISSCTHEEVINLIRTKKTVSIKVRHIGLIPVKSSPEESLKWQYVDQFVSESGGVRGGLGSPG

The target of assay [2] is T2, harmonin-a Nter domain (residues 1-79) (UniProt Q9ES64 1-79).
T2 sequence (looked up): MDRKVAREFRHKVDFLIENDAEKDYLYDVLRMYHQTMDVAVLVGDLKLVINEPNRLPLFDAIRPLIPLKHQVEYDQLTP

The target of assay [3] is T3, harmonin-a Nter-PDZ1-PDZ2 fragment (residues 1-299) (UniProt Q9ES64 1-299).
T3 sequence (looked up): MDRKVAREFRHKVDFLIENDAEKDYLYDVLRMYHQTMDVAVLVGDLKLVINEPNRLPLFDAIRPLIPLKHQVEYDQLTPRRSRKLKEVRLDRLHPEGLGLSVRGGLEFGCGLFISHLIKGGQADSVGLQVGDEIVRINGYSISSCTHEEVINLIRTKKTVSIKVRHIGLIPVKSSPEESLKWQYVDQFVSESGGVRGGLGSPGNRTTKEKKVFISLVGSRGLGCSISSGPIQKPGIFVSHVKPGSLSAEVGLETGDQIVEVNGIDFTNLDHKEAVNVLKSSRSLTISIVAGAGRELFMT

Assay [4] concerns the target GST-CDH23Δexon68ΔITEL (residues 847-1075).
Assay [5] concerns the target B2.
In assay [6] the target is B3.
Assay [7] addresses B1.

What is called Kd is a measure of binding affinity in units of concentration. Turning to B1, the values for the Kd in assay [1], in assay [2] and in assay [3] were 94 ± 8 nM, greater than 5000 nM and 64 ± 6 nM, respectively.
The matching figures for B2: 106 ± 5 nM, greater than 5000 nM and 66 ± 13 nM.
The matching figures for B3: 79 ± 10 nM, greater than 5000 nM and 42 ± 11 nM.

B4: full-length harmonin-a (natural protein)
chain: MDRKVAREFRHKVDFLIENDAEKDYLYDVLRMYHQTMDVAVLVGDLKLVINEPNRLPLFDAIRPLIPLKHQVEYDQLTPRRSRKLKEVRLDRLHPEGLGLSVRGGLEFGCGLFISHLIKGGQADSVGLQVGDEIVRINGYSISSCTHEEVINLIRTKKTVSIKVRHIGLIPVKSSPEESLKWQYVDQFVSESGGVRGGLGSPGNRTTKEKKVFISLVGSRGLGCSISSGPIQKPGIFVSHVKPGSLSAEVGLETGDQIVEVNGIDFTNLDHKEAVNVLKSSRSLTISIVAGAGRELFMTDRERLEEARQRELQRQELLMQKRLAMESNKILQEQQEMERQRRKEIAQKAAEENERYRKEMEQISEEEEKFKKQWEEDWGSKEQLILPKTITAEVHPVPLRKPKYDQGVEPADHLDGSTEEQRQQDFRKYEEGFDPYSMFSPEQIAGKDVRLLRIKKEGSLDLALEGGVDSPVGKVVVSAVYEGGAAERHGGVVKGDEIMAINGKIVTDYTLAEAEAALQKAWNQGGDWIDLVVAVCPPKEYDDEL
For the molecule B4, the Kd in assay [4] amounted to 48 ± 6 nM; in assay [5], 127 ± 12 nM; in assay [6], 79 ± 11 nM; in assay [7], 97 ± 14 nM.
